Like-named read-outs stand apart in the source and are kept apart here.
Legend:
[1] = biological target: T1, HPV-11 E1 helicase (Human papillomavirus 11, UniProt P04014); assay: E1 helicase SPA high-throughput assay, inhibition (IC50 curves); format: biochemical, human papillomavirus type 11
T1 construct: made in house; host or cells: SF21 insect cells, recombinant baculovirus (Bac-to-Bac, pFASTBAC1)
From the text: In this assay, the duplex DNA substrate consists of M13 single-stranded DNA (about 8000 bases) to which is annealed a 19 base oligodeoxynucleotide (see FIG. 6). This partial duplex is extended to 24 bases with the incorporation of [^33 P]-labeled dATP by a reaction with the Klenow fragment of DNA polymerase I. Helicase activity results in the separation of this radiolabeled oligo from the M13 DNA. In the absence of a functional helicase, the double-stranded DNA substrate is stable for several hours at the assay temperature.
To detect activity, a second 24-base deoxyoligonucleotide, complementary to the substrate oligo, is added to the reaction mixture in a second step. […]
In the third step, streptavidin-coated SPA beads (Amersham Life Science, code TRKQ7030) are added to the mixture. […] Thus radiolabeled oligo annealed to the biotinylated oligo will be detected, whereas unreacted substrate still hybridized to M13 is not in close proximity to the beads and will not be detected.
In the presence of an inhibitor, less substrate is unwound, so a lower signal is detected. […] The M13 DNA competes with the labeled M13 substrate and inhibits the signal detected. […]
Assay buffer, used for all dilutions, consisted of 20 mM MES, pH 7.0, 10% glycerol, 1.0 mM DTT, and 0.05 mM EDTA. […] Sufficient E1 is used to give approximately 20% unwinding (as determined in Example 9). […]

[2] = test system: partial duplex DNA substrate; details: Yang, PNAS (1993), assayed at 32°; cited from earlier work
[3] = biological target: HPV-11 E2 protein (human papillomavirus type 11) (UniProt P04015); assay: E2-dependent E1 DNA binding assay: E1/E2/ori complex with radiolabeled origin probe, captured with K72 antiserum on protein A-SPA beads, scintillation counting
[4] = test system: partial duplex DNA substrate; assay: Helicase specific activity (unwinding of partial duplex DNA), this work; format: biochemical; details: 37°, enzyme concentration greater than substrate
Protocol: The substrate for the analytical helicase assay consisted of a […] oligonucleotide (GTAAAACGACCAGTGCCAAGC) (SEQ ID NO. 11) end-labeled using [^33 P]ATP and polynucleotide kinase, annealed to M13mp18. Combined helicase/ATPase reactions contained 800 or 1600 ng of E1, 2 mM MgCl2, 1 mM ATP, and 1 μM helicase substrate (concentration in nucleotides) in a total volume of 80 μL of helicase assay buffer (20 mM MES, pH 7.0, 1 mM DTT, 0.05 mM EDTA, 10% glycerol). Reactions were incubated for 2 h at 37° and then placed on ice. […]
Helicase activity was quantitated as follows:
A separate reaction mixture, containing no enzyme was heated to 95° for 10 min., and the resulting free substrate oligonucleotide (completely denatured) was detected as described for reaction mixtures. […] Quantitation of unwinding is calculated relative to the boiled sample with background subtracted.
In all cases the enzyme concentration was greater than the substrate concentration and the substrate was partial duplex DNA. […] The SV-40 TAg was also assessed in the literature and V of 50 and 80 % unwinding/μm protein/min were obtained from these groups respectively (Goetz, JBC (1988); Stahl, EMBO (1986)). […]

## CC[n+]1c(-c2ccccc2)c2cc(N)ccc2c2ccc(N)cc21 [ethidium bromide]
[1]
  IC50: ~4 µM

## BPV E1: bovine papillomavirus E1 helicase, literature value (Yang, PNAS 1993)
[2]
  Helicase Activity V (% unwinding/μM protein/min): 2.9 % unwinding/μM protein/min

## HPV-11 His-E1 protein (wild type) (enzyme)
[3]
  signal over background (fold): 20 to 30 fold

B1: HPV-11 E1: His-tagged E1 helicase of human papillomavirus type 11, low-salt nuclear extraction, Ni affinity purified (SEQ ID NO.26) (protein)
chain: MADDSGTENEGSGCTGWFMVEAIVEHTTGTQISEDEEEEVEDSGYDMVDFIDDRHITQNSVEAQALFNRQEADAHYATVQDLKRKYLGSPYVSPISNVANAVESEISPRLDAIKLTTQPKKVKRRLFETRELTDSGYGYSEVEAATQVEKHGDPENGGDGEERDTGRDIEGEGVEHREAEAVDDSTREHADTSGILELLKCKDIRSTLHGKFKDCFGLSFVDLIRPFKSDRTTCADWVVAGFGIHHSIADAFQKLIEPLSLYAHIQWLTNAWGMVLLVLIRFKVNKSRCTVARTLGTLLNIPENHMLIEPPKIQSGVAALYWFRTGISNASTVIGEAPEWITRQTVIEHSLADSQFKLTEMVQWAYDNDICEESEIAFEYAQRGDFDSNARAFLNSNMQAKYVKDCAIMCRHYKHAEMKKMSIKQWIKYRGTKVDSVGNWKPIVQFLRHQNIEFIPFLSKLKLWLHGTPKKNCIAIVGPPDTGKSCFCMSLIKFLGGTVISYVNSCSHFWLQPLTDAKVALLDDATQPCWTYMDTYMRNLLDGNPMSIDRKHRALTLIKCPPLLVTSNIDISKEEKYKYLHSRVTTFTFPNPFPFDRNGNAVYELSDANWKCFFERLSSSLDIEDSEDEEDGSNSQAFRCVPGSVVRTL
modifications: His tag
[4]
  Helicase Activity V (% unwinding/μM protein/min): 2.5 % unwinding/μM protein/min

B2: HPV-6a E1: His-tagged E1 helicase of human papillomavirus type 6a purified according to the invention (SEQ ID NO.27) (protein)
chain: MADDSGTENEGSGCTGWFMVEAIVQHPTGTQISDDEDEEVEDSGYDMVDFIDDSNITHNSLEAQALFNRQEADTHYATVQDLKRKYLGSPYVSPINTIAEAVESEISPRLDAIKLTRQPKKVKRRLFQTRELTDSGYGYSEVEAGTGTQVEKHGVPENGGDGQEKDTGRDIEGEEHTEAEAPTNSVREHAGTAGILELLKCKDLRAALLGKFKECFGLSFIDLIRPFKSDKTTCLDWVVARFGIHHSISEAFQKLIEPLSLYAHIQWLTNAWGMVLLVLLRFKVNKSRSTVARTLATLLNIPENQMLIEPPKIQSGVAALYWFRTGISNASTVIGEAPEWITRQTVIEHGLADSQFKLTEMVQWAYDNDICEESEIAFEYAQRGDFDSNARAFLNSNMQAKYVKDCATMCRHYKHAEMRKMSIKQWIKHRGSKIEGTGNWKPIVQFLRHQNIEFIPFLTKFKLWLHGTPKKNCIAIVGPPDTGKSYFCMSLISFLGGTVISHVNSSSHFWLQPLVDAKVALLDDATQPCWIYMDTYMRNLLDGNPMSIDRKHKALTLIKCPPLLVTSNIDITKEDKYKYLHTRVTTFTFPNPFPFDRNGNAVYELSNTNWKCFFERLSSSLDIQDSEDEEDGSNSQAFRCVPGTVVRTL
modifications: His tag
[4]
  Helicase Activity V (% unwinding/μM protein/min): 2.3 % unwinding/μM protein/min
